Laboratory results as given in patent publication US20040053865A1 (UNITED STATES OF AMERICA AS REPRESENTED BY THE SECRETARY OF …, published 2004).

Key:
[1] = molecular target: T1, Ebola Sudan (Boniface) virus glycoprotein (GP) (Ebola virus, Sudan strain (isolate …, UniProt Q66814 33-676)); test: ELISA on irradiated sucrose-purified virions
T1 sequence: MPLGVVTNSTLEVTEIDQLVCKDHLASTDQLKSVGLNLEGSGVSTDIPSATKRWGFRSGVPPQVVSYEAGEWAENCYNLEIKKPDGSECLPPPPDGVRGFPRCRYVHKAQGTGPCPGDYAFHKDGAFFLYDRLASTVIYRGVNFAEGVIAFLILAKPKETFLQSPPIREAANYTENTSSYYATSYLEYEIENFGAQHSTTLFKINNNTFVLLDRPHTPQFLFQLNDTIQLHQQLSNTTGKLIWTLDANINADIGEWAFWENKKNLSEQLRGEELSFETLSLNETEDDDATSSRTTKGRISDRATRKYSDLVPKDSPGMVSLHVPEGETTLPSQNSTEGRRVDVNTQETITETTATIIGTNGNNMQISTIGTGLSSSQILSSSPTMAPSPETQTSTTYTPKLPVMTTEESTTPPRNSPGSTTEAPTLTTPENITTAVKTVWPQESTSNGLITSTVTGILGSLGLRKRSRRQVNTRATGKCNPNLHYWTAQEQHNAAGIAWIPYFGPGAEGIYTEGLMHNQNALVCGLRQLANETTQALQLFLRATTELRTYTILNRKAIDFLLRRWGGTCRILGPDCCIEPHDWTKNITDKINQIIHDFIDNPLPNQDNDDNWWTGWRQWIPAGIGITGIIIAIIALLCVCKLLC

[2] = molecular target: T2, Ebola Ivory Coast virus glycoprotein (GP) (Ebola virus, Ivory Coast strain, UniProt Q66810 33-676); test: ELISA on irradiated sucrose-purified virions
T2 sequence: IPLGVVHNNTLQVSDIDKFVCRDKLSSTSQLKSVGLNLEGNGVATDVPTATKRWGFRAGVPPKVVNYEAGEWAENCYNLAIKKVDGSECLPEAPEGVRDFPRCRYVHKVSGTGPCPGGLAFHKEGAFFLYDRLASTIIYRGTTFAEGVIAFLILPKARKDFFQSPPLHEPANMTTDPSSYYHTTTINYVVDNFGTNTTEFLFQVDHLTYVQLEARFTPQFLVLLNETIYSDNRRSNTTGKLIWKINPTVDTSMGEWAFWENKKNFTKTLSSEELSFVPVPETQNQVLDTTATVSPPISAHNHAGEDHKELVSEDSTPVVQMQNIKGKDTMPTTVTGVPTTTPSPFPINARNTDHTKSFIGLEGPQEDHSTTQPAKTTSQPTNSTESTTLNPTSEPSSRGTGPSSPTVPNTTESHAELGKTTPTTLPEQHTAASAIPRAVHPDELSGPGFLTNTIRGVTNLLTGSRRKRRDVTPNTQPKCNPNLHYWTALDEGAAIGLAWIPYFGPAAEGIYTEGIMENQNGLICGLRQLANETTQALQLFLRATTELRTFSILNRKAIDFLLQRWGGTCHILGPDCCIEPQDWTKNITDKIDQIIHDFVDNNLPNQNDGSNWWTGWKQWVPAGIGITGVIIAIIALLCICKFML

[3] = molecular target: T3, sGP (secreted glycoprotein) from EboGP-VRP-infected cells (Ebola virus, Zaire strain, Mayinga …, UniProt P60170 33-324); test: radioimmunoprecipitation from infected-cell supernatants
T3 sequence: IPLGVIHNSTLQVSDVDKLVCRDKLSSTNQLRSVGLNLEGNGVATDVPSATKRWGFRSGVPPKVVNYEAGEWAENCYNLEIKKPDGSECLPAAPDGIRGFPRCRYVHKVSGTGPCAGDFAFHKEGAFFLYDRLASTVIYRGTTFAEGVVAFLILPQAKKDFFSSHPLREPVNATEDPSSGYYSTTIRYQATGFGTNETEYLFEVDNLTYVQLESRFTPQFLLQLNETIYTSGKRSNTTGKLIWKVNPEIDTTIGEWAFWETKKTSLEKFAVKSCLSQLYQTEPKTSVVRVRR

[4] = molecular target: T4, Ebola Zaire 1976 (Mayinga isolate) virus glycoprotein (GP) (Ebola virus, Zaire 1976 strain (isolate …, UniProt Q05320 33-676)); test: ELISA on virions
T4 sequence: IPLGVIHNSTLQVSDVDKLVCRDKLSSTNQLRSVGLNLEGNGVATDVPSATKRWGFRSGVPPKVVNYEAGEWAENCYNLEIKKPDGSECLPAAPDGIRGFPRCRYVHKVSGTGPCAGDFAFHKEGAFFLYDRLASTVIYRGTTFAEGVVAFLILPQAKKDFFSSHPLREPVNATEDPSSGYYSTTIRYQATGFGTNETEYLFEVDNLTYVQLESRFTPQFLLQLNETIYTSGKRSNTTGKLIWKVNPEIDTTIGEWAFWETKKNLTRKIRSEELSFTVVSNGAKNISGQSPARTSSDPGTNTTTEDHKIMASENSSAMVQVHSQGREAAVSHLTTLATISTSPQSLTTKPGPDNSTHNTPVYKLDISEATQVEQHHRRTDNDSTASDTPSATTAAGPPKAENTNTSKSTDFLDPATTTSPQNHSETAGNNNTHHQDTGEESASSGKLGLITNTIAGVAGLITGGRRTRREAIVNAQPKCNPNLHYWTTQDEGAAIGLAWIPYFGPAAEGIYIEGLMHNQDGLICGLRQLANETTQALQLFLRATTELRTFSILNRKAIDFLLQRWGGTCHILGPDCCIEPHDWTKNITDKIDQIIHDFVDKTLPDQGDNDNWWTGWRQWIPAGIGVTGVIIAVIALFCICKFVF

B1: MAb EGP 13F6-1-2 (antibody, V domains shown)
VH: EVQVVESGGGLVKPGGSLKLSCAASGFAFSSYDMSWVRQTPEKRLEWVAYISRGGGYTYYPDTVKGRFTISRDNAKNTLYLQMSSLKSEDTAMYYCSRHIYYGSSHYYAMDYWGQGTSVTVSS
VL: QLVLTQSSSASFSLGASAKLTCTLSRQHSTYTIEWYQQQPLKPPRYVMELKKDGSHSTGDGIPDRFSGSSSGADRYLSISNIQPEDEAIYICGVGDTIKEQFVYVFGGGTKVTVLG
What does the source list for B1?
binding result [1]: no binding; binding result [2]: no binding; binding result [3]: no binding

B2: MAb EGP 6D8-1-2 (antibody, V domains shown)
VH: DVKLLESGGGLVQPGGSLKLSCAASGFDFSRYWMSWVRQAPGKGLEWIGEINPDSSTINYTPSLKDKFIISRDNAKNTLYLQMSKVRSEDTALYYCTRQGYGYNYWGQGTTLIVSS
VL: DVLLTQIPLSLPVSLGDQASISCRSSQSIVHSNGNTYLEWYLQKPGQSPKLLIYKASNRFSGVPDRFSGSGSGTDFTLKINRVEAEDLGVYYCLQGSHVPSTFGGGTKLEIKR
Which results are given for B2?
binding result [4]: binds; binding result [1]: no binding; binding result [2]: no binding; binding result [3]: no binding
